Measurements as given in patent US20250277045A1 (KEYMED BIOSCIENCES, published 2025).

T1: human BCMA recombinant antigen (human, UniProt Q02223 1-53)
T1 construct: range 1-53; also called human BCMA recombinant protein
T1 sequence (looked up): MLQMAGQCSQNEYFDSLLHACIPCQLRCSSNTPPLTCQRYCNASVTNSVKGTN

T2: human BCMA on cells (CHO-hBCMA clone 2C2; NCI-H929; RPMI-8226) (human, UniProt Q02223 1-184)
T2 construct: whole, on cells; also called Human BCMA-CHO; CHO-hBCMA-2C2
T2 sequence (looked up): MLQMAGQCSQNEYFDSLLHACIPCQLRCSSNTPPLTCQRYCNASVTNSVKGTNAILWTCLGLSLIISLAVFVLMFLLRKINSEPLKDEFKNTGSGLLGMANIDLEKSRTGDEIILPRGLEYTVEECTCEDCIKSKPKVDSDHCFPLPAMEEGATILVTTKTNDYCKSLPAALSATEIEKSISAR

T3: cynomolgus monkey CD3εγ-Fc heterodimer (cynomolgus monkey)
T3 chain 1: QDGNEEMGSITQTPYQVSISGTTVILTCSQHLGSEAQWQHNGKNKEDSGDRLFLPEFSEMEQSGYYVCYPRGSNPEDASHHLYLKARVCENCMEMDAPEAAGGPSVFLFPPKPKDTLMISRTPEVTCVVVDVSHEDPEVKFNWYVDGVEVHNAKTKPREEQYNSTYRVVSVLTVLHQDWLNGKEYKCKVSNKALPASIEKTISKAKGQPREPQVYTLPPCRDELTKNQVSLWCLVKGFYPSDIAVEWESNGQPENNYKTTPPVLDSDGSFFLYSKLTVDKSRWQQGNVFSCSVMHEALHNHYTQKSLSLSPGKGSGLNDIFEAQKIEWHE
T3 chain 2: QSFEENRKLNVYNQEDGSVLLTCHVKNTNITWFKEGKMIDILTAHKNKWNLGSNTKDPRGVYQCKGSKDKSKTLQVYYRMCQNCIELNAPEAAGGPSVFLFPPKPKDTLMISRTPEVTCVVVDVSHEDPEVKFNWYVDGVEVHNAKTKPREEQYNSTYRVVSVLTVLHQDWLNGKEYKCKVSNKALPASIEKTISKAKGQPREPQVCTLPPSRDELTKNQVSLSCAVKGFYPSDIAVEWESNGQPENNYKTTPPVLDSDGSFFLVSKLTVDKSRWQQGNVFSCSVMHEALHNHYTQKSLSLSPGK


Experiments:
[1] = target: T1, human BCMA recombinant antigen; experiment: competition ELISA, coated human BCMA, antibody varied, then biotinylated human APRIL at 240 ng/mL, SA-HRP
Procedure: 1 μg/mL human BCMA recombinant antigen was prepared with pH 9.6 carbonic acid buffer, added to a maxisorp96-well plate, and coated overnight at 4° C. After blocking with 5% skim milk/PBS for 1 h at room temperature, 50 μL antibody per well (4-fold dilution from 30 μg/mL for a total of 10 gradients) was added and incubated for 30 min at room temperature. […] After 3 washes with 0.05% PBST (PBS+0.05% Tween-20) and PBS respectively, 100 μL of SA-HRP (diluted 1:8000) was added to each well and incubated at room temperature for 45 min. Washing 3 times with 0.05% PBST and PBS respectively, 100 μL TMB color-developing solution was added into each well, after 10 min, 50 μL concentrated sulfuric acid was added into each well to stop the reaction, read OD450 nm by a microplate reader, and perform three-parameter fitting curve using Graphpad software.

[2] = target: T4, human CD3 on T cells (Jurkat cells; human peripheral blood CD4+ and CD8+ T cells) (human, UniProt P07766 23-207); experiment: flow cytometry, peripheral blood CD8+ T cells (PBMC)
T4 construct: whole, on cells; also called CD3ε
Procedure: (§1) Fresh human or cynomolgus monkey peripheral blood was taken and PBMC was isolated by Ficoll-Paque Plu (GE, 17-1440-03). […] 50 μL/well Alexa Fluro647 labeled goat anti-human IgG Fc (1:300 dilution) was added to the secondary antibody, ice bath for 20 min, 50 μL/well PI was added after washing once, incubated for 5 min, and flow cytometer (BD C6) was used to perform detection.

[3] = target: T5, cynomolgus monkey BCMA on CHO cells (CHO-cynoBCMA clone 1A2) (cynomolgus monkey, UniProt A0A2K5UD97 1-183); experiment: flow cytometry, CHO-cynomolgus monkey BCMA cells
T5 construct: whole, on cells; also called Cynomolgus monkey BCMA-CHO; CHO-cynoBCMA-1A2
Procedure: (§2) 50 μL/well Alexa Fluro647 labeled goat anti-human IgG Fc (1:300 dilution) was added to the secondary antibody, incubated on ice for 20 min, 50 μL/well PI solution (1:300) was added after washing once, incubated for 5 min, and flow cytometer was used to perform detection.

[4] = target: T2, human BCMA on cells (CHO-hBCMA clone …); experiment: flow cytometry, RPMI-8226 cells
Procedure: (§3) The primary antibody was washed off, 50 μL/well Alexa Fluro647 labeled goat anti-human IgG Fc (1:300 dilution) was added, incubated on ice for 20 min, 50 μL/well PI was added after washing once, incubated for 5 min, and flow cytometer was used to perform detection.

[5] = target: T2, human BCMA on cells (CHO-hBCMA clone …); experiment: flow cytometry, NCI-H929 cells
Procedure: as §3

[6] = target: T4, human CD3 on T cells (Jurkat cells; …); experiment: flow cytometry, Jurkat cells
Procedure: Jurkat cells in the logarithmic growth phase were added with 200 μg/mL murine IgG (Jackson ImmunoResearch, 115-005-03) and incubated on ice for 30 min. […] 50 μL/well Alexa Fluro647 labeled goat anti-human IgG Fc (1:300 dilution) was added to the secondary antibody, incubated on ice for 20 min, 50 μL/well PI was added after washing once, incubated for 5 min, and flow cytometer (BD C6) was used to perform detection.

[7] = target: T1, human BCMA recombinant antigen; experiment: SPR (Biacore T200), antigen amine-coupled to CM5, antibody as analyte, 1:1 model
Procedure: (§4) 10 μg/mL human or cynomolgus monkey BCMA or CD3εγ recombinant antigen was bound to a CM5 chip (GE healthcare) by amino coupling, controlling the amount of antigen bound to approximately 200 RU. After the baseline plateau, gradient-diluted antibodies (from 10 μg/mL, 2-fold dilutions for 7 gradients) flowed through the chip at a flow rate of 30 μL/min for a binding time of 350 seconds and a dissociation time of 600 seconds. Kinetic constants were fitted using Biacore T200 evaluation software with a 1:1 binding model.

[8] = target: T6, cynomolgus monkey BCMA recombinant antigen (cynomolgus monkey, UniProt A0A2K5UD97 1-51); experiment: as above
T6 construct: range 1-52
Procedure: as §4

[9] = target: T3, cynomolgus monkey CD3εγ-Fc heterodimer; experiment: as above
Procedure: as §4

[10] = target: T2, human BCMA on cells (CHO-hBCMA clone …); experiment: flow cytometry, CHO-human BCMA cells
Procedure: as §2

[11] = target: T4, human CD3 on T cells (Jurkat cells; …); experiment: flow cytometry, peripheral blood CD4+ T cells (PBMC)
Procedure: as §1

T4 sequence (P07766 23-207): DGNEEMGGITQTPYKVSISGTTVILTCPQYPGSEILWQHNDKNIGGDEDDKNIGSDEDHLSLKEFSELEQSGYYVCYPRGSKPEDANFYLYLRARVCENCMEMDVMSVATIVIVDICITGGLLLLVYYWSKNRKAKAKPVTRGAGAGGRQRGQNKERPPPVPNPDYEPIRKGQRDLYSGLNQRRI
T6 sequence (A0A2K5UD97 entry or part of it): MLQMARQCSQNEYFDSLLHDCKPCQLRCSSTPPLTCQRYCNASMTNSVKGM
T5 sequence (A0A2K5UD97 entry or part of it): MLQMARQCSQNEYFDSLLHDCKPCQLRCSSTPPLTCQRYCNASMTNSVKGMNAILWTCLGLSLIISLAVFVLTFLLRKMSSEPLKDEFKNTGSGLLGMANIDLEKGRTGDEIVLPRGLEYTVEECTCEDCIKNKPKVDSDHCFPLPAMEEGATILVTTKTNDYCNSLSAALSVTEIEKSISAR

Row | Binder | IC50 (read off the curve) [1] [nM] | EC50 [2] [nM] | EC50 [3] [nM] | EC50 [4] [nM] | EC50 [5] [nM] | EC50 [6] [nM] | Kd [7] [nM] | Kd [8] [nM] | Kd [9] [nM] | EC50 [10] [nM] | EC50 [11] [nM]
1 | BCMA×CD3 κλ003 (bispecific antibody, human IgG4 S228P, kappa, lambda) light 1: DIVLTQSPASLAVSPGQRATITCRASKSVSTSGYSYMHWYQKKPGQPPKLLIYLASNLESGVPARFSGSGSGTDFTLTINPVEAEDTANYYCQHSRELPWTFGQGTKVEIKRTVAAPSVFIFPPSDEQLKSGTASVVCLLNNFYPREAKVQWKVDNALQSGNSQESVTEQDSKDSTYSLSSTLTLSKADYEKHKVYACEVTHQGLSSPVTKSFNRGEC heavy 1: QVQLVQSGSELKKPGASVKVSCKASGYIFTNFGMNWVREAPGQGLEWMGWINTYTGEQIYADGFTGRFVFSLDTSASTAYLQISSLKAEDTAVYFCARGEIYYGYDVGFVYWGQGTLVTVSSASTKGPSVFPLAPCSRSTSESTAALGCLVKDYFPEPVTVSWNSGALTSGVHTFPAVLQSSGLYSLSSVVTVPSSSLGTKTYTCNVDHKPSNTKVDKRVESKYGPPCPPCPAPEFEGGPSVFLFPPKPKDTLMISRTPEVTCVVVDVSQEDPEVQFNWYVDGVEVHNAKTKPREEQFNSTYRVVSVLTVLHQDWLNGKEYKCKVSNKGLASSIEKTISKAKGQPREPQVCTLPPSQEEMTKNQVSLSCAVKGFYPSDIAVEWESNGQPENNYKTTPPVLDSDGSFFLVSKLTVDKSRWQEGNVFSCSVMHEALHNHYTQKSLSLSLGK light 2: QAVVTQEPSLTVSPGGTVTLTCRSSTGAVTTSNYANWVQEKPGQAPRGLIGGTNKRAPWTPARFSGSLLGGKAALTITGAQAEDEAEYYCVLWYSNLWVFGGGTKLTVLGQPKAAPSVTLFPPSSEELQANKATLVCLISDFYPGAVTVAWKADSSPVKAGVETTTPSKQSNNKYAASSYLSLTPEQWKSHRSYSCQVTHEGSTVEKTVAPTECS heavy 2: EVQLVESGGGLVQPGGSLRLSCAASGFTFNTYAMNWVRKAPGKGLEWVGRIRSKYNNYATYYADSVKDRFTISRDDSKNSLYLQMNSLKTEDTAVYYCVRHGNFGNSYVSWFAYWGQGTLVTVSSASTKGPSVFPLAPCSRSTSESTAALGCLVKDYFPEPVTVSWNSGALTSGVHTFPAVLQSSGLYSLSSVVTVPSSSLGTKTYTCNVDHKPSNTKVDKRVESKYGPPCPPCPAPEFEGGPSVFLFPPKPKDTLMISRTPEVTCVVVDVSQEDPEVQFNWYVDGVEVHNAKTKPREEQFNSTYRVVSVLTVLHQDWLNGKEYKCKVSNKGLASSIEKTISKAKGQPREPQVYTLPPCQEEMTKNQVSLWCLVKGFYPSDIAVEWESNGQPENNYKTTPPVLDSDGSFFLYSKLTVDKSRWQEGNVFSCSVMHEALHNHYTQKSLSLSLGK | ~8 | 97 | 3 | 34 | 34 | 66 | 1.3 | 0.16 | 43 | 16 | 87
2 | BCMA×CD3 κλ004 (bispecific antibody, human IgG4 S228P, kappa, lambda) light 1: DIVLTQSPASLAVSPGQRATITCRASKSVTTSGYSYIHWYQKKPGQPPKLLIYLASDLEAGVPARFSGSGSGTDFTLTINPVEAEDTANYYCQHSRELPWTFGQGTKVEIKRTVAAPSVFIFPPSDEQLKSGTASVVCLLNNFYPREAKVQWKVDNALQSGNSQESVTEQDSKDSTYSLSSTLTLSKADYEKHKVYACEVTHQGLSSPVTKSFNRGEC heavy 1: QVQLVQSGSELKKPGASVKVSCKASGYIFTNFGMNWVREAPGQGLEWMGWINTYTGEQIYADGFTGRFVFSLDTSASTAYLQISSLKAEDTAVYFCARGEIYYGYDVGFVYWGQGTLVTVSSASTKGPSVFPLAPCSRSTSESTAALGCLVKDYFPEPVTVSWNSGALTSGVHTFPAVLQSSGLYSLSSVVTVPSSSLGTKTYTCNVDHKPSNTKVDKRVESKYGPPCPPCPAPEFEGGPSVFLFPPKPKDTLMISRTPEVTCVVVDVSQEDPEVQFNWYVDGVEVHNAKTKPREEQFNSTYRVVSVLTVLHQDWLNGKEYKCKVSNKGLASSIEKTISKAKGQPREPQVCTLPPSQEEMTKNQVSLSCAVKGFYPSDIAVEWESNGQPENNYKTTPPVLDSDGSFFLVSKLTVDKSRWQEGNVFSCSVMHEALHNHYTQKSLSLSLGK light 2: QAVVTQEPSLTVSPGGTVTLTCRSSTGAVTTSNYANWVQEKPGQAPRGLIGGTNKRAPWTPARFSGSLLGGKAALTITGAQAEDEAEYYCVLWYSNLWVFGGGTKLTVLGQPKAAPSVTLFPPSSEELQANKATLVCLISDFYPGAVTVAWKADSSPVKAGVETTTPSKQSNNKYAASSYLSLTPEQWKSHRSYSCQVTHEGSTVEKTVAPTECS heavy 2: EVQLVESGGGLVQPGGSLRLSCAASGFTFNTYAMNWVRKAPGKGLEWVGRIRSKYNNYATYYADSVKDRFTISRDDSKNSLYLQMNSLKTEDTAVYYCVRHGNFGNSYVSWFAYWGQGTLVTVSSASTKGPSVFPLAPCSRSTSESTAALGCLVKDYFPEPVTVSWNSGALTSGVHTFPAVLQSSGLYSLSSVVTVPSSSLGTKTYTCNVDHKPSNTKVDKRVESKYGPPCPPCPAPEFEGGPSVFLFPPKPKDTLMISRTPEVTCVVVDVSQEDPEVQFNWYVDGVEVHNAKTKPREEQFNSTYRVVSVLTVLHQDWLNGKEYKCKVSNKGLASSIEKTISKAKGQPREPQVYTLPPCQEEMTKNQVSLWCLVKGFYPSDIAVEWESNGQPENNYKTTPPVLDSDGSFFLYSKLTVDKSRWQEGNVFSCSVMHEALHNHYTQKSLSLSLGK | ~5 | 84 | 3 | 39 | 36 | 61 | 1 | 0.12 | 43 | 22 | 77
